Assay results from patent US20120058906A1 (published 2012).

Experiments:
[1] = target: T1, rHuman IGF-1 sR (IGF-1 sR), CF (R&D Systems Cat#391-GR) (human, UniProt P08069 31-932); test: ECL (MSD multi-spot), antigen spotted on plate; Fab 10 nM; blank 427
T1 construct: Bought soluble receptor; also called insulin-like growth factor-1 soluble receptor; IGF-R1

[2] = target: T2, rHuman P-Cadherin/Fc Chimera, CF (R&D Systems Cat#861-PC) (human, UniProt P22223 108-654); test: as above
T2 construct: Bought protein; also called CDH3; Fc part of the bought chimera not given

[3] = target: T3, Recombinant Human DLL4 (R&D Systems Cat#1506-D4/CF) (human, UniProt Q9NR61 27-524); test: as above
T3 construct: Bought protein; also called rHuman DLL4; delta-like protein 4

[4] = target: T4, rHuman CD44/Fc Chimera, CF (R&D Systems Cat#3660-CD) (human, UniProt P16070 21-220); test: as above
T4 construct: Bought protein; Fc part of the bought chimera not given

[5] = target: T1, rHuman IGF-1 sR (IGF-1 sR), CF (R&D …); test: ECL (MSD multi-spot), antigen spotted on plate; Fab 1000 nM; blank 1742
[6] = target: T2, rHuman P-Cadherin/Fc Chimera, CF (R&D …); test: as above
[7] = target: T3, Recombinant Human DLL4 (R&D Systems …); test: as above
[8] = target: T4, rHuman CD44/Fc Chimera, CF (R&D Systems …); test: as above
[9] = target: T1, rHuman IGF-1 sR (IGF-1 sR), CF (R&D …); test: ECL (MSD multi-spot), antigen spotted on plate; Fab 8 nM; blank 1188
[10] = target: T3, Recombinant Human DLL4 (R&D Systems …); test: as above
[11] = target: T5, rHuman EGF R/Fc Chimera, CF (R&D Systems Cat#344-ER) (human, UniProt P00533 25-645); test: as above
T5 construct: Bought protein; also called epidermal growth factor receptor; Fc part of the bought chimera not given

[12] = target: T6, rHuman HGF R/c-MET/Fc Chimera, CF (R&D Systems Cat#358-MT/CF) (human, UniProt P08581 25-932); test: as above
T6 construct: Bought protein; also called HGF R/Fc; hepatocyte growth factor receptor; Fc part of the bought chimera not given

[13] = target: T1, rHuman IGF-1 sR (IGF-1 sR), CF (R&D …); test: ECL (MSD multi-spot), antigen spotted on plate; Fab 1.6 nM; blank 648
[14] = target: T3, Recombinant Human DLL4 (R&D Systems …); test: as above
[15] = target: T5, rHuman EGF R/Fc Chimera, CF (R&D …); test: as above
[16] = target: T6, rHuman HGF R/c-MET/Fc Chimera, CF (R&D …); test: as above
[17] = target: T1, rHuman IGF-1 sR (IGF-1 sR), CF (R&D …); test: ECL (MSD multi-spot), antigen spotted on plate; Fab 40 nM; blank 1229
[18] = target: T3, Recombinant Human DLL4 (R&D Systems …); test: as above
[19] = target: T5, rHuman EGF R/Fc Chimera, CF (R&D …); test: as above
[20] = target: T6, rHuman HGF R/c-MET/Fc Chimera, CF (R&D …); test: as above
[21] = target: T1, rHuman IGF-1 sR (IGF-1 sR), CF (R&D …); test: ECL (MSD multi-spot), antigen spotted on plate; Fab 0.32 nM; blank 428
[22] = target: T3, Recombinant Human DLL4 (R&D Systems …); test: as above
[23] = target: T5, rHuman EGF R/Fc Chimera, CF (R&D …); test: as above
[24] = target: T6, rHuman HGF R/c-MET/Fc Chimera, CF (R&D …); test: as above
[25] = target: T1, rHuman IGF-1 sR (IGF-1 sR), CF (R&D …); test: ECL (MSD multi-spot), antigen spotted on plate; Fab 200 nM; blank 1659
[26] = target: T3, Recombinant Human DLL4 (R&D Systems …); test: as above
[27] = target: T5, rHuman EGF R/Fc Chimera, CF (R&D …); test: as above
[28] = target: T6, rHuman HGF R/c-MET/Fc Chimera, CF (R&D …); test: as above
[29] = target: T1, rHuman IGF-1 sR (IGF-1 sR), CF (R&D …); test: ECL (MSD multi-spot), antigen spotted on plate; Fab 1000 nM; blank 2142
[30] = target: T3, Recombinant Human DLL4 (R&D Systems …); test: as above
[31] = target: T5, rHuman EGF R/Fc Chimera, CF (R&D …); test: as above
[32] = target: T6, rHuman HGF R/c-MET/Fc Chimera, CF (R&D …); test: as above
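Also: blank spot per well as comparator with Hit at signal to blank ratio of 4 or more.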

B1: Fab VH5-51_IGHD5-18*01>3_IGHJ4*01_G104T & V3-4_IGLJ1*01 (Fab, V domains shown)
VH: EVQLVQSGAEVKKPGESLKISCKGSGYSFTSYWIGWVRQMPGKGLEWMGIIYPGDSDTRYSPSFQGQVTISADKSISTAYLQWSSLKASDTAMYYCARRGYSYTYDYFDYWGQGTLVTVSS
VL: QTVVTQEPSFSVSPGGTVTLTCGLSSGSVSTSYYPSWYQQTPGQAPRTLIYSTNTRSSGVPDRFSGSILGNKAALTITGAQADDESDYYCVLYMGSGISYVFGTGTKVTVL
notes: Expressed in E. coli as a Fab; CH1 with Flag and His tags comes from Plasmid A and the lambda CL from Plasmid E; also called IGHV5-51*03; IGHJ4*01 G104T with IGLV8-61*01
B1 was tested, and the ECL signal [1] was 1120, the ECL signal [2] was 705 and the ECL signal [3] was 5230. It also gave an ECL signal [4] of 841, an ECL signal [5] of 3990 and an ECL signal [6] of 3430. The ECL signal [7] was 29800 and the ECL signal [8] was 3380.

B2: Fab VH1-46_IGHD6-6*01_IGHJ1*01_S104A & L6_IGKJ1*01 (Fab, V domains shown)
VH: QVQLVQSGAEVKKPGASVKVSCKASGYTFTSYYMHWVRQAPGQGLEWMGIINPSGGSTSYAQKFQGRVTMTRDTSTSTVYMELSSLRSEDTAVYYCAREEYSSASAEYFQHWGQGTLVTVSS
VL: not shown
notes: Expressed in E. coli as a Fab; CH1 with Flag and His tags comes from Plasmid A and the kappa CL from Plasmid C; also called IGHV1-46*01; IGHJ1*01 S104A with IGKV3-11*01
B2 was tested, and the ECL signal [9] was 1290, the ECL signal [10] was 9330 and the ECL signal [11] was 1300. The ECL signal [12] was 1300, the ECL signal [13] was 815 and the ECL signal [14] was 2130. The ECL signal [15] was 862, the ECL signal [16] was 830 and the ECL signal [17] was 1900. It also gave an ECL signal [18] of 13600, an ECL signal [19] of 1840 and an ECL signal [20] of 1540. For the same binder, the ECL signal [21] was 611, the ECL signal [22] was 646 and the ECL signal [23] was 660. The ECL signal [24] was 574, the ECL signal [25] was 2600 and the ECL signal [26] was 14800. It also gave an ECL signal [27] of 2950, an ECL signal [28] of 2440 and an ECL signal [29] of 3350. The ECL signal [30] was 14300, the ECL signal [31] was 3480 and the ECL signal [32] was 3530.
